The data set is described as follows: Biodistribution of radiometal-DOTA-BBN conjugates in CF1 normal mice. The following applies: 1 hour post-injection; for tissue uptake at 1 h: Avg % ID/gm.

This note sets out measurements from patent US20060067886A1, “Gastrin receptor-avid peptide conjugates” (priority 1997, published 2006).

The term tissue uptake denotes the share of the injected amount in each gram of the tissue.

On to `CSCC[C@H](NC(=O)[C@H](CC(C)C)NC(=O)[C@H](Cc1c[nH]cn1)NC(=O)CNC(=O)[C@@H](NC(=O)[C@H](C)NC(=O)[C@H](Cc1c[nH]c2ccccc12)NC(=O)[C@H](CCC(N)=O)NC(=O)CCCCCCCCCCNC(=O)CN1CCN(CC(=O)O)CCN(CC(=O)O)CCN(CC(=O)O)CC1)C(C)C)C(N)=O` [111In-DOTA-11-Aun-BBN[7-14]NH2, metal not drawn], for which the tissue uptake dose at 1 h by setting is: (CF-1, mouse, in vivo, iv, total radioactivity, Avg % ID, Blood) 0.79 ± 0.2 %ID; (CF-1, mouse, in vivo, iv, total radioactivity, Avg % ID, Carcass) 7.35 ± 1.57 %ID; (CF-1, mouse, in vivo, iv, total radioactivity, Avg % ID, Kidney) 1.07 ± 0.17 %ID; (CF-1, mouse, in vivo, iv, total radioactivity, Avg % ID, L. Intestine) 5.54 ± 2.42 %ID; (CF-1, mouse, in vivo, iv, total radioactivity, Avg % ID, Liver) 2.44 ± 0.5 %ID; (CF-1, mouse, in vivo, iv, total radioactivity, Avg % ID, Pancreas) 11.6 ± 1.14 %ID. Also, the tissue uptake dose at 1 h turned out to be 17.8 ± 1.4 %ID (CF-1, mouse, in vivo, iv, total radioactivity, Avg % ID, S. Intestine); 0.19 ± 0.04 %ID (CF-1, mouse, in vivo, iv, total radioactivity, Avg % ID, Spleen); 0.53 ± 0.11 %ID (CF-1, mouse, in vivo, iv, total radioactivity, Avg % ID, Stomach). Moreover, the dose excreted at 1 h (CF-1, mouse, in vivo, iv, total radioactivity, Avg % ID, Urine) is 53.3 ± 0.9%. The tissue uptake at 1 h is, setting by setting: (CF-1, mouse, in vivo, iv, total radioactivity, L. Intestine) 4.34 ± 1.34 %ID/g; (CF-1, mouse, in vivo, iv, total radioactivity, Liver) 1.22 ± 0.25 %ID/g; (CF-1, mouse, in vivo, iv, total radioactivity, Pancreas) 26 ± 3.46 %ID/g; (CF-1, mouse, in vivo, iv, total radioactivity, S. Intestine) 11.1 ± 2.07 %ID/g; (CF-1, mouse, in vivo, iv, total radioactivity, Spleen) 1.15 ± 0.38 %ID/g; (CF-1, mouse, in vivo, iv, total radioactivity, Stomach) 1.05 ± 0.25 %ID/g.
Take `CSCC[C@H](NC(=O)[C@H](CC(C)C)NC(=O)[C@H](Cc1c[nH]cn1)NC(=O)CNC(=O)[C@@H](NC(=O)[C@H](C)NC(=O)[C@H](Cc1c[nH]c2ccccc12)NC(=O)[C@H](CCC(N)=O)NC(=O)CCCCNC(=O)CN1CCN(CC(=O)O)CCN(CC(=O)O)CCN(CC(=O)O)CC1)C(C)C)C(N)=O` [149Pm-DOTA-5-Ava-BBN[7-14]NH2]: the “Avg % ID, Blood” value is 0.47 ± 0.11 % ID; the “Avg % ID, Carcass” value is given as 6.16 ± 0.75 % ID; the “Avg % ID, Heart” value turned out to be 0.06 ± 0.09 % ID; the “Avg % ID, Kidney” value is listed as 1.11 ± 0.29 % ID. Moreover, the “Avg % ID, L. Intestine” value was determined as 3.18 ± 1.18 % ID; the “Avg % ID, Liver” value is 0.37 ± 0.20 % ID; the “Avg % ID, Lung” value is given as 0.17 ± 0.21 % ID; the “Avg % ID, Muscle” value was 0.03 ± 0.04 % ID. Also, the “Avg % ID, Pancreas” value came out at 4.25 ± 0.43 % ID; the “Avg % ID, S. Intestine” value is on record as 7.70 ± 0.66 % ID; the “Avg % ID, Spleen” value came to 0.27 ± 0.13 % ID; the “Avg % ID, Stomach” value turned out to be 0.77 ± 0.74 % ID. Further, the “Avg % ID/gm, Blood” value is 0.27 ± 0.06 % ID/gm; the “Avg % ID/gm, Heart” value is given as 0.42 ± 0.59 % ID/gm; the “Avg % ID/gm, Kidney” value came out at 2.81 ± 0.66 % ID/gm; the “Avg % ID/gm, L. Intestine” value stood at 3.53 ± 1.10 % ID/gm. Also, the “Avg % ID/gm, Liver” value was determined as 0.23 ± 0.13 % ID/gm; the “Avg % ID/gm, Lung” value came to 0.78 ± 1.08 % ID/gm; the “Avg % ID/gm, Muscle” value came out at 0.24 ± 0.25 % ID/gm; the “Avg % ID/gm, Pancreas” value was found to be 22.1 ± 5.40 % ID/gm. For the same compound, the “Avg % ID/gm, S. Intestine” value came to 5.15 ± 1.20 % ID/gm; the “Avg % ID/gm, Spleen” value is 2.37 ± 1.36 % ID/gm; the “Avg % ID/gm, Stomach” value stood at 1.90 ± 1.60 % ID/gm.
For the compound `CSCC[C@H](NC(=O)[C@H](CC(C)C)NC(=O)[C@H](Cc1cnc[nH]1)NC(=O)CNC(=O)[C@@H](NC(=O)[C@H](C)NC(=O)[C@H](Cc1c[nH]c2ccccc12)NC(=O)[C@H](CCC(N)=O)NC(=O)CCCCCCCNC(=O)CN1CCN(CC(=O)O)CCN(CC(=O)O)CCN(CC(=O)O)CC1)C(C)C)C(N)=O` [149Pm-DOTA-8-Aoc-BBN[7-14]NH2], the “Avg % ID, Blood” value stood at 0.23 ± 0.26 % ID; the “Avg % ID, Carcass” value amounted to 10.30 ± 1.84 % ID; the “Avg % ID, Heart” value is 0.00 ± 0.01 % ID; the “Avg % ID, Kidney” value stood at 1.55 ± 0.47 % ID. Besides, the “Avg % ID, L. Intestine” value is listed as 4.43 ± 2.37 % ID; the “Avg % ID, Lung” value was found to be 0.02 ± 0.04 % ID; the “Avg % ID, Muscle” value was found to be 0.01 ± 0.02 % ID; the “Avg % ID, Pancreas” value is listed as 7.34 ± 3.51 % ID. Also, the “Avg % ID, S. Intestine” value is 7.84 ± 2.15 % ID; the “Avg % ID, Spleen” value stood at 0.24 ± 0.06 % ID; the “Avg % ID, Stomach” value stood at 0.66 ± 0.35 % ID; the “Avg % ID/gm, Blood” value is 0.12 ± 0.13 % ID/gm. Also, the “Avg % ID/gm, L. Intestine” value was determined as 4.14 ± 2.14 % ID/gm; the “Avg % ID/gm, Liver” value is 0.19 ± 0.12 % ID/gm; the “Avg % ID/gm, Lung” value was found to be 0.09 ± 0.14 % ID/gm; the “Avg % ID/gm, Muscle” value is on record as 0.09 ± 0.21 % ID/gm. For the same compound, the “Avg % ID/gm, Pancreas” value came out at 28.29 ± 13.26 % ID/gm and the “Avg % ID/gm, S. Intestine” value is reported as 12.56 ± 16.70 % ID/gm.
For `CSCC[C@H](NC(=O)[C@H](CC(C)C)NC(=O)[C@H](Cc1c[nH]cn1)NC(=O)CNC(=O)[C@@H](NC(=O)[C@H](C)NC(=O)[C@H](Cc1c[nH]c2ccccc12)NC(=O)[C@H](CCC(N)=O)NC(=O)CCCCNC(=O)CN1CCN(CC(=O)O)CCN(CC(=O)O)CCN(CC(=O)O)CC1)C(C)C)C(N)=O` [177Lu-DOTA-5-Ava-BBN[7-14]NH2] [metal not drawn], the “Avg % ID, Blood” value amounted to 0.35 ± 0.31 % ID; the “Avg % ID, Carcass” value was 2.77 ± 0.75 % ID; the “Avg % ID, Heart” value was found to be 0.04 ± 0.05 % ID; the “Avg % ID, Kidney” value is given as 0.69 ± 0.33 % ID. Also, the “Avg % ID, L. Intestine” value is 3.52 ± 1.37 % ID; the “Avg % ID, Liver” value turned out to be 0.14 ± 0.06 % ID; the “Avg % ID, Lung” value was 0.08 ± 0.15 % ID; the “Avg % ID, Muscle” value is listed as 0.09 ± 0.12 % ID. In addition, the “Avg % ID, Pancreas” value was found to be 3.78 ± 1.09 % ID; the “Avg % ID, S. Intestine” value turned out to be 3.80 ± 1.87 % ID; the “Avg % ID, Spleen” value is 0.18 ± 0.12 % ID; the “Avg % ID, Stomach” value was 0.73 ± 1.33 % ID. The “Avg % ID/gm, Blood” value worked out at 0.22 ± 0.19 % ID/gm; the “Avg % ID/gm, Heart” value is on record as 0.34 ± 0.35 % ID/gm; the “Avg % ID/gm, Kidney” value is on record as 2.03 ± 1.02 % ID/gm; the “Avg % ID/gm, L. Intestine” value turned out to be 3.78 ± 1.23 % ID/gm. For the same compound, the “Avg % ID/gm, Liver” value is listed as 0.09 ± 0.04 % ID/gm; the “Avg % ID/gm, Lung” value is listed as 0.47 ± 0.84 % ID/gm; the “Avg % ID/gm, Muscle” value turned out to be 0.67 ± 0.90 % ID/gm; the “Avg % ID/gm, Pancreas” value came out at 16.41 ± 1.38 % ID/gm. The “Avg % ID/gm, S. Intestine” value stood at 2.55 ± 1.31 % ID/gm; the “Avg % ID/gm, Spleen” value was found to be 1.26 ± 0.69 % ID/gm; the “Avg % ID/gm, Stomach” value was 1.48 ± 2.25 % ID/gm.
